These results are taken from patent publication US20250002527A1, “STEROID COMPOUND AND CONJUGATE THEREOF” (DUALITY BIOLOGICS (SUZHOU) CO., LTD., priority 2021, published 2025).

Holding throughout (format): cell-based
Experiment [1] relates to human PBMC cells. As to the kind of experiment: TNF-α secretion from PBMC under R848 stimulation (compounds). Conditions: R848 5 μM, 24 hours, mean ± standard deviation. The method, then: (§1) The compounds of the present application were tested for their inhibitory effect on the production of peripheral blood monocytes. The peripheral blood monocytes were treated in vitro with the ligand-drug conjugate at different concentrations, and IFNα and TNFα generated by the peripheral blood monocytes were quantitatively detected after a certain time. The compounds of the present invention were evaluated for in-vitro activity.
(§2) The cryopreserved human PBMC cells were resuspended in a complete medium and counted, and the cell suspension was adjusted to 2.5×10*6 cells/mL with the culture medium. After the suspension was centrifuged to collect the cells the next day, the cells were resuspended using fresh culture medium. Test compounds were diluted to 4-fold final concentration in cell culture medium, 50 μL of the compounds were added into a 96-well cell plate, and 100 μL of diluted cells ([…]) were added into each well of the 96-well plate containing the compounds, followed by addition of 50 μL R848 to a final concentration of 5 μM. The cell plate was incubated at 37° C. with 5% CO2 for 24 hours. The supernatant was collected, and the TNF-α and IFN-α concentration levels in the supernatant were detected using an ELISA kit.
TNF-α concentration assay was performed using Dakewe TNF-α ELISA kit (Cat #1117202), 100 μL of the serially-diluted cytokine standard was added into each well, 100 μL of the above supernatant diluted 10-fold was added into each well, and 100 μL of 1× dilution buffer R was added into each blank well. 50 μL of biotinylated antibody working solution was added into each well. After mixing well, the plate was covered with the plate-sealing membrane and incubated at room temperature for 3 hours. The plate was washed for 3 times: the liquid in each well was discarded, and 300 μL of 1× washing buffer working solution was added into each well; after 1 minute of residence, the liquid in the wells was discarded. The procedure was repeated for 3 times. 100 μL of Streptavidin-HRP working solution was added into each well. The plate was covered with the plate-sealing membrane and incubated at room temperature for 20 minutes. The plate was washed for 3 times, 100 μL of TMB liquid was added into each well, and the plate was incubated for 25 minutes at room temperature (18-25° C.) in the dark. The reaction was stopped by adding 100 μL stop solution rapidly to each well. The reading at a wavelength of 450 nm was detected by an M2e instrument within 10 minutes after termination.
(§3) The contents of TNF-α and IFN-α were calculated from the OD450 values.

For experiment [2], the system named is human PBMC cells. The experiment in a line: IFN-α secretion from PBMC under R848 stimulation (compounds). Conditions: R848 5 μM, 24 hours, mean ± standard deviation. The method, then: as §1, §2
50 μL of biotinylated antibody working solution was added into each well. After mixing well, the plate was covered with the plate-sealing membrane and incubated at room temperature for 3 hours. […] The procedure was repeated for 3 times. 100 μL of Streptavidin-HRP working solution was added into each well. The plate was covered with the plate-sealing membrane and incubated at room temperature for 20 minutes. The plate was washed for 3 times, 100 μL of TMB liquid was added into each well, and the plate was incubated for 25 minutes at room temperature (18-25° C.) in the dark. The reaction was stopped by adding 100 μL stop solution rapidly to each well. The reading at a wavelength of 450 nm was detected by an M2e instrument within 10 minutes after termination.
as §3

Experiment [3] deals with human PBMC cells. As to the kind of experiment: R848-induced IFNα release from PBMCs (drug conjugates, FIG. 1a). Particulars: incubation concentration 300 nm. The method, then: (§4) 1a: R848-induced IFNα release from PBMCs; 1b: R848-induced TNFα release from PBMCs; 1c: R848-induced IL6 release from PBMCs, 1d: R848-induced IL8 release from PBMCs.
(§5) The inhibitory effect of the ligand-drug conjugate (ADC) of the present application on the production of IFNα by peripheral blood monocytes was examined. The peripheral blood monocytes were treated in vitro with the ligand-drug conjugate at different concentrations, and IFNα and TNFα generated by the peripheral blood monocytes were quantitatively detected after a certain time. The ligand-drug conjugates were evaluated for in-vitro activity.
(§6) The cryopreserved human PBMC cells were resuspended in a complete medium and counted, and the cell suspension was adjusted to 2.5×10*6 cells/mL with the culture medium. After the suspension was centrifuged to collect the cells the next day, the cells were resuspended using fresh culture medium, and 100 μL of diluted cells ([…]) were added into a 96-well plate. The test samples were diluted to 3-fold final stimulation concentration using fresh culture medium, 50 μL of the diluted test samples were added into the 96-well cell plate, and the cell plate was incubated at 37° C. with 5% CO2 for 12 hours, followed by addition of 50 μL 20 μM R848 each well. The cell plate was incubated at 37° C. with 5% CO2 for 20 hours. The supernatant was collected, and the cytokine concentration in the supernatant was detected using a kit.
(§7) IFN-α concentration assay was performed using Dakewe TNF-α ELISA kit (Cat #1110012), 100 μL of the serially-diluted cytokine standard was added into each well, 100 μL of the above supernatant diluted 2-fold was added into each well, and 100 μL of 1× dilution buffer R was added into each blank well. 50 μL of biotinylated antibody working solution was added into each well. After mixing well, the plate was covered with the plate-sealing membrane and incubated at room temperature for 3 hours. […] The reading at a wavelength of 450 nm was detected by an M2e instrument within 10 minutes after termination.

In experiment [4] the test system is human PBMC cells. The experiment in a line: R848-induced IL8 release from PBMCs (drug conjugates, FIG. 1d). Particulars: incubation concentration 300 nm. The method, then:
as §4, §5, §6
as §7, with “IL-8” for “IFN-α”, “IL-8” for “TNF-α”, “#1110802),” for “#1110012),”

Experiment [5] relates to human PBMC cells. As to the kind of experiment: R848-induced TNFα release from PBMCs (drug conjugates, FIG. 1b). Particulars: incubation concentration 300 nm. The method, then: as §4, §5, §6
as §7, with “TNF-α” for “IFN-α”, “#1117202),” for “#1110012),”, “10-fold” for “2-fold”

In experiment [6] the test system is human PBMC cells. As to the kind of experiment: R848-induced IL6 release from PBMCs (drug conjugates, FIG. 1c). Conditions: incubation concentration 300 nm. The method, then: as §4, §5, §6
IL-6 concentration assay was performed using Dakewe IL-6 ELISA kit (Cat #DKW12-1060-096), 100 μL of serially-diluted cytokine standard was added into each well, 100 μL of the above supernatant diluted 2-fold was added into each well, and 100 μL of 1× dilution buffer R was added into each blank well. 50 μL of biotinylated antibody working solution was added into each well. After mixing well, the plate was covered with the plate-sealing membrane and incubated at room temperature for 3 hours. […] The reading at a wavelength of 450 nm was detected by an M2e instrument within 10 minutes after termination.

`C[C@]12C=CC(=O)C=C1CC[C@@H]1[C@@H]2[C@@H](O)C[C@@]2(C)[C@H]1C[C@H]1O[C@@H](c3ccc(Cc4cccc(N)c4)cc3)O[C@]12C(=O)CO` [Compound 14]: the “TNF-α secretion (pg/mL) from PBMC under R848 stimulation” value in the experiment with human PBMC cells [1] (compound 4 nM) came to 868 pg/mL; in the experiment with human PBMC cells [1] (compound 20 nM) it was 465.6 pg/mL; in the experiment on human PBMC cells [1] (compound 100 nM), 471.9 pg/mL. For the same molecule, the “IFN-α secretion (pg/mL) from PBMC under R848 stimulation” value is 10.2 ± 10.2 pg/mL in the experiment on human PBMC cells [2] (compound 20 nM) and 13 ± 13 pg/mL in the experiment on human PBMC cells [2] (compound 100 nM).

On to `C[C@@H]1C[C@H]2[C@@H]3CCC4=CC(=O)C=C[C@]4(C)[C@@]3(F)[C@@H](O)C[C@]2(C)[C@@]1(O)C(=O)CO` [Dexamethasone, dexamethasone, reference compound], for which the figures for the “TNF-α secretion (pg/mL) from PBMC under R848 stimulation” value with human PBMC cells [1] (compound 4 nM), in the experiment on human PBMC cells [1] (compound 20 nM) and in the experiment on human PBMC cells [1] (compound 100 nM) were 1446.5 pg/mL, 761.9 pg/mL and 396.4 pg/mL, respectively. Further, the “IFN-α secretion (pg/mL) from PBMC under R848 stimulation” value in the experiment with human PBMC cells [2] (compound 4 nM) amounted to 620.7 ± 70.4 pg/mL; in the experiment with human PBMC cells [2] (compound 20 nM), 169.6 ± 94.4 pg/mL; in the experiment with human PBMC cells [2] (compound 100 nM), 0 ± 0 pg/mL.

B1: Conjugate 19: antibody BIIB059 reacted with Compound 9 "to give Conjugate 19"; 4.75 by LC-MS (conjugate, chains of the INN, looked up)
VH: DVQLVESGGGLVKPGGSLRLSCAASGFTFSTYTMSWVRQAPGKGLEWVATISPGDSFGYYYPDSVQGRFTISRDNAKNSLYLQMNSLRAEDTAVYYCTRDIYYNYGAWFAYWGQGTLVTVSS
VL: DIQLTQSPSSLSASVGDRVTITCKASQSVDYDGDSYMNWYQQKPGKAPKLLIYAASTLESGVPSRFSGSGSGTDFTLTISSLQPEDFATYYCQQANEDPRTFGQGTKVEIK
modifications: Compound 9 conjugate
notes: antibody BIIB059 reacted with Compound 9 "to give Conjugate 19"; 4.75 by LC-MS
Consider B1, for which the “IFN-α contents in the detection system” value in the experiment on human PBMC cells [3] is 113.2 pg/mL. Moreover, the “IL-8 contents in the detection system” value in the experiment on human PBMC cells [4] is 26565.5 pg/mL. Further, the “TNF-α contents in the detection system” value in the experiment on human PBMC cells [5] is 761.8 pg/mL. In the experiment on human PBMC cells [6], the “IL-6 contents in the detection system” value was 8861.7 pg/mL.

B2: Conjugate 20: antibody BIIB059 reacted with Compound 16 "to give Conjugate 20"; 4.27 by LC-MS (conjugate, chains of the INN, looked up)
VH: B1 VH
VL: B1 VL
modifications: conjugated to Compound 16
notes: antibody BIIB059 reacted with Compound 16 "to give Conjugate 20"; 4.27 by LC-MS
On to B2, for which the “IFN-α contents in the detection system” value in the experiment with human PBMC cells [3] came out at 1422.5 pg/mL. Further, the “IL-8 contents in the detection system” value with human PBMC cells [4] is recorded as 56315.8 pg/mL. Further, the “TNF-α contents in the detection system” value in the experiment with human PBMC cells [5] was 3280.0 pg/mL. In the experiment on human PBMC cells [6], the “IL-6 contents in the detection system” value stood at 34744.1 pg/mL.

B3: Conjugate 21: antibody BIIB059 reacted with Compound 15 "to give Conjugate 21"; 4.30 by LC-MS (conjugate, chains of the INN, looked up)
VH: B1 VH
VL: B1 VL
modifications: Compound 15 conjugate
notes: antibody BIIB059 reacted with Compound 15 "to give Conjugate 21"; 4.30 by LC-MS
Regarding B3, the “IFN-α contents in the detection system” value in the experiment on human PBMC cells [3] came out at 911.9 pg/mL. For the same molecule, the “IL-8 contents in the detection system” value in the experiment on human PBMC cells [4] was determined as 43544.9 pg/mL. Further, the “TNF-α contents in the detection system” value in the experiment on human PBMC cells [5] was found to be 2644.1 pg/mL. The “IL-6 contents in the detection system” value in the experiment with human PBMC cells [6] is on record as 29867.1 pg/mL.
